PMC4191604 (Journal of Medicinal Chemistry, 2014)
Numbering of substitutions follows the chain as printed.

Key:
Test in all cases: SPR
GBP1 mutant D103N = molecular target: T1, GBP1 mutant D103N (human, UniProt P32455 1-592, D103N)
T1 sequence (looked up): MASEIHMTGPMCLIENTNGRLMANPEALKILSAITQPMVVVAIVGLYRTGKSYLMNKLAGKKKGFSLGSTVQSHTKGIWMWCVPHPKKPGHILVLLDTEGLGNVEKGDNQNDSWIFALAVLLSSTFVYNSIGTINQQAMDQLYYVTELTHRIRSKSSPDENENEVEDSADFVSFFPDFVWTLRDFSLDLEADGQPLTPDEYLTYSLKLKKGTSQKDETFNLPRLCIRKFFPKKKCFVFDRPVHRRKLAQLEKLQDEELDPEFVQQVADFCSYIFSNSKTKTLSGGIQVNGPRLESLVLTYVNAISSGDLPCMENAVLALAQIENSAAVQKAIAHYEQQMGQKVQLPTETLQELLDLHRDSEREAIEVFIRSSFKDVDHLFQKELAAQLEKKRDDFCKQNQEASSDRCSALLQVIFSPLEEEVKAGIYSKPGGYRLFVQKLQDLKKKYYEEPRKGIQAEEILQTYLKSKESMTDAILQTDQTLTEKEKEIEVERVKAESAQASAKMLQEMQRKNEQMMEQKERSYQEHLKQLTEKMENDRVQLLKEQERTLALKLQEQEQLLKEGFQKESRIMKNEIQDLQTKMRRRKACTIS

GBP1 mutant R227A/K228A = molecular target: T2, GBP1 mutant R227A/K228A (human, UniProt P32455 1-592, R227A | K228A)
T2 sequence (looked up): T1 sequence (looked up) with N103D, R227A, K228A

GBP1 mutant K51A = molecular target: T3, GBP1 mutant K51A (human, UniProt P32455 1-592, K51A)
T3 sequence (looked up): T1 sequence (looked up) with K51A, N103D

GBP1 mutant D184A = molecular target: T4, GBP1 mutant D184A (human, UniProt P32455 1-592, D184A)
T4 sequence (looked up): T1 sequence (looked up) with N103D, D184A

Kd (GBP1 mutant D103N): 15 ± 0.1 nM
Kd (GBP1 mutant R227A/K228A): 61 ± 4 nM
Kd (GBP1 mutant K51A): 26 ± 11 nM
Kd (GBP1 mutant D184A): 77 ± 3 nM
B1: PIM1 (recombinant) (enzyme)
chain: not shown
